Reference: doi:10.1101/2020.11.15.382044

Legend:
[1] = target: SARS-CoV-2 Spike trimer (Wuhan), design Spike_ΔCter_ΔFurin_2P_T4_His (SARS-CoV-2 | bacteriophage T4) (UniProt P0DTC2); test: negative-stain electron microscopy
[2] = target: SARS-CoV-2 Spike trimer (Wuhan), design Spike_ΔCter_ΔFurin_2P_T4_His (SARS-CoV-2 | bacteriophage T4) (UniProt P0DTC2); test: SEC
[3] = target: SARS-CoV-2 D614G mutant S trimer (design Spike_ΔCter_ΔFurin_2P_T4_His with D614G) (SARS-CoV-2 | bacteriophage T4) (UniProt P0DTC2); test: negative-stain electron microscopy

| Substance | stoichiometry N [1] | stoichiometry N [2] | stoichiometry N [3] |
| --- | --- | --- | --- |
| SARS-CoV-2 Spike trimer (Wuhan), design Spike_ΔCter_ΔFurin_2P_T4_His (from UniProt P0DTC2 14-1213) (complex) | 3 | 3 |  |
| SARS-CoV-2 D614G mutant S trimer (design Spike_ΔCter_ΔFurin_2P_T4_His with D614G) (from UniProt P0DTC2 14-1213) (complex) |  |  | 3 |
